In PMC4365481:

Columns and labels:
GST-α-actinin R2 [1] = target: GST-α-actinin R2 (UniProt P05094); assay: pull-down; competition: 2 µg GST-α-actinin R2 on glutathione-sepharose, cross-linked with dimethyl pimelimidate; 1 ml of 250 nM His6-GluN1 cytoplasmic domain with increasing amounts of ICAM-5 cytoplasmic domain, RT 1 h; bound His6-GluN1 by western blotting, band intensities fitted to an exponential decay …
GST-α-actinin R3 = assay: ELISA; settings: ICAM-5 cytoplasmic domains coated on plates and incubated with GST-α-actinin rod domains; values normalized to the level of BSA binding; parent: est. 0.072; read off a plot
[2] = target: GST-α-actinin R1-R4 (the whole rod domain) (UniProt P05094); assay: ELISA; settings: ICAM-5 cytoplasmic domains coated on plates and incubated with GST-α-actinin rod domains; values normalized to the level of BSA binding; parent: est. 0.28; read off a plot
GST-α-actinin R4 = GST-α-actinin R4 (UniProt P05094); assay: ELISA; settings: ICAM-5 cytoplasmic domains coated on plates and incubated with GST-α-actinin rod domains; values normalized to the level of BSA binding; parent: est. 0.020; read off a plot
GST-α-actinin R1 = assay: ELISA; settings: ICAM-5 cytoplasmic domains coated on plates and incubated with GST-α-actinin rod domains; values normalized to the level of BSA binding; parent: est. 0.10; read off a plot
GST-α-actinin R2 [3] = target: GST-α-actinin R2 (UniProt P05094); assay: ELISA; settings: ICAM-5 cytoplasmic domains coated on plates and incubated with GST-α-actinin rod domains; values normalized to the level of BSA binding; parent: est. 0.22; read off a plot

Chain of UniProt P05094 (P05094 387-510): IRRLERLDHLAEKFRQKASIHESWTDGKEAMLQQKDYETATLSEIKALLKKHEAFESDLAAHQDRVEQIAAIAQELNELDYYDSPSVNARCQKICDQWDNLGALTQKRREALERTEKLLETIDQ

| IC50 (GST-α-actinin R2 [1]) | response (GST-α-actinin R3) | response [2] | response (GST-α-actinin R4) | response (GST-α-actinin R1) | response (GST-α-actinin R2 [3]) | Substance |
| --- | --- | --- | --- | --- | --- | --- |
| 55 nM | – | – | – | – | – | ICAM-5 cytoplasmic domain (WT) (from UniProt Q9UMF0 857-924) (domain or fragment) |
| – | 0.02 A492 | 0.015 A492 | 0.022 A492 | 0.035 A492 | 0.015 A492 | ICAM-5 cytoplasmic domain (WT) (from UniProt Q9UMF0) K857A; K858A |
